Residue numbers refer to the chain shown, from its start.
T1: Ac-(NPNA)2-NH2 peptide (Plasmodium falciparum (synthetic repeat …))
T1 construct: two NPNA repeats of the central repeat region of P. falciparum circumsporozoite protein (PfCSP); also called (NPNA)2 peptide; source: synthetic peptide, bought: InnoPep Inc. (>98% purity)
T1 chain: Ac-NPNANPNA-NH2

B1: Fab311 (Fab of monoclonal antibody mAb311) (Fab, V domains shown)
VH: QVQLVESGGGVVPPGRSLRLSCATSGFTFSNYGMHWVRQAPGKGLEWVAIIWYDGSRNFYAASVEGRFTISRDNSKNTLYLQMNSLRVEDTAVYYCARAAYYDTSGYGDYWGQGTLVTVSS
VL: QSVLTQPPSVSGAPGQTVTISCTGGSSNIGAGYDVHWYQQLPGTAPKLLIYGNINRPSGVPDRFSGSKSGTSASLAITGLQAEDEADYYCQSYDRRLSGSWVFGGGTKLTVL
notes: heavy chain of Fab311; cryo-EM models 6MHG and 6MB3 hold the variable domains only; germline IGHV3-33*01; light chain of Fab311; germline IGLV1-40*01; human antibody isolated from an RTS,S/AS01B vaccinee; source: FreeStyle 293-F cells, purified as previously described (15)
B2: Fab311R (Fab311 inter-Fab contact residue reverted) (Fab, V domains shown)
VH: B1 VH with N31S, R57N, N58K, E65K
VL: B1 VL with R95S, R96S
notes: the PDB entries hold the parent Fab311; also called germline-reverted Fab311; source: FreeStyle 293-F cells

Molecular target: T1, Ac-(NPNA)2-NH2 peptide
Assay: ITC; MicroCal Auto-iTC200; peptide 134 uM in the syringe, Fab in the cell (9.2 uM Fab311, 9.6 uM Fab311R); Dulbecco's PBS; 25 °C; triplicate experiments, 16 injections
Details: both partners purified

Row | Binder | Kd [nM] | stoichiometry N
1 | B1 | 160 ± 7 | 1.19 ± 0.04
2 | B2 | 135 ± 56 | 1.21 ± 0.03
